Values of other authors in publication PMC5074778.

Biological target: IL-6 receptor (Homo sapiens) (UniProt P08887)
Chain of UniProt P08887 (P08887 20-365): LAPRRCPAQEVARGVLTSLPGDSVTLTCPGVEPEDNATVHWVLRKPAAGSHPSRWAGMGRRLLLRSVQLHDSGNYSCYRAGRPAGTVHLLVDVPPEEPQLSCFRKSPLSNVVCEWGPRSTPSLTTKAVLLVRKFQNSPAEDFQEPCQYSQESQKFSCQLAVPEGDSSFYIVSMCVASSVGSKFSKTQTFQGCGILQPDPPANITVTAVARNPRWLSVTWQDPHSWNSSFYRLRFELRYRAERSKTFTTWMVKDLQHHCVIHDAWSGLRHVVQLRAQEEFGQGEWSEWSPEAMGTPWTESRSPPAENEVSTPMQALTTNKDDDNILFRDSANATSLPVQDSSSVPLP

- Kd: 2.5 nM
Substance: Tocilizumab
